Laboratory results taken from patent US20160130315A1 (AJOU UNIVERSITY INDUSTRY ACADEMIC COOPERATION FOUNDATION, published 2016).
Like-named read-outs stand apart in the source and are kept apart here.

T1: Sema3F (19-779) (UniProt Q13275 19-779)
T1 construct: range 19-779; Control ligand; Biotinylated in the ELISA; also called Semaphorin 3F
T1 sequence (looked up): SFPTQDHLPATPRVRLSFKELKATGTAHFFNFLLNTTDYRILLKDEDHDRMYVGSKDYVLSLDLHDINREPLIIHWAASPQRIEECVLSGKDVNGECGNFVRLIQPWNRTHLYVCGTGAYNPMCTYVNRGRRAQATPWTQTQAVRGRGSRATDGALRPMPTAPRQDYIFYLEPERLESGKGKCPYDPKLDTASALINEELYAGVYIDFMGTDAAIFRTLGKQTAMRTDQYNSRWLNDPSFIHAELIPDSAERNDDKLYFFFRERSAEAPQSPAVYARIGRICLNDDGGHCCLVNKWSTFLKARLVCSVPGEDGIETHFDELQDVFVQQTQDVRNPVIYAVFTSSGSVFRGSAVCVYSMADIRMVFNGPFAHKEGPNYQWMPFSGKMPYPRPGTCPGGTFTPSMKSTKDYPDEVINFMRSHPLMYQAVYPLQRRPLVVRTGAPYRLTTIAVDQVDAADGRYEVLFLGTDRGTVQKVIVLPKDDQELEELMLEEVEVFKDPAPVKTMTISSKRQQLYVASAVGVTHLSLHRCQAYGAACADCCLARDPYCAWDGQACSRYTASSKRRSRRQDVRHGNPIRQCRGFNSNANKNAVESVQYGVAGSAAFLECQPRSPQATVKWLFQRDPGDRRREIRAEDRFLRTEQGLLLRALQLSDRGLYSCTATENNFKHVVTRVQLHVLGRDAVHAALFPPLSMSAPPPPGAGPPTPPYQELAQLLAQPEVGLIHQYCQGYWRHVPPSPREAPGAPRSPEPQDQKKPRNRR

B1: Sema3A (26-760) (ligand, UniProt Q14563 26-760, looked up)
chain: KNNVPRLKLSYKEMLESNNVITFNGLANSSSYHTFLLDEERSRLYVGAKDHIFSFDLVNIKDFQKIVWPVSYTRRDECKWAGKDILKECANFIKVLKAYNQTHLYACGTGAFHPICTYIEIGHHPEDNIFKLENSHFENGRGKSPYDPKLLTASLLIDGELYSGTAADFMGRDFAIFRTLGHHHPIRTEQHDSRWLNDPKFISAHLISESDNPEDDKVYFFFRENAIDGEHSGKATHARIGQICKNDFGGHRSLVNKWTTFLKARLICSVPGPNGIDTHFDELQDVFLMNFKDPKNPVVYGVFTTSSNIFKGSAVCMYSMSDVRRVFLGPYAHRDGPNYQWVPYQGRVPYPRPGTCPSKTFGGFDSTKDLPDDVITFARSHPAMYNPVFPMNNRPIVIKTDVNYQFTQIVVDRVDAEDGQYDVMFIGTDVGTVLKVVSIPKETWYDLEEVLLEEMTVFREPTAISAMELSTKQQQLYIGSTAGVAQLPLHRCDIYGKACAECCLARDPYCAWDGSACSRYFPTAKRRTRRQDIRNGDPLTHCSDLHHDNHHGHSPEERIIYGVENSSTFLECSPKSQRALVYWQFQRRNEERKEEIRVDDHIIRTDQGLLLRSLQQKDSGNYLCHAVEHGFIQTLLKVTLEVIDTEHLEELLHKDDDGDGSKTKEMSNSMTPSQKVWYRDFMQLINHPNLNTMDEFCEQVWKRDRKQRRQRPGHTPGNSNKWKHLQENKKGRNRR
notes: range 26-760; Control ligand; Biotinylated in the ELISA; also called Semaphorin3A; Semaphorin 3A
B2: b1b2 domains (275-595) of neuropilin-2 (receptor, UniProt O60462 275-595, looked up)
chain: FQCNVPLGMESGRIANEQISASSTYSDGRWTPQQSRLHGDDNGWTPNLDSNKEYLQVDLRFLTMLTAIATQGAISRETQNGYYVKSYKLEVSTNGEDWMVYRHGKNHKVFQANNDATEVVLNKLHAPLLTRFVRIRPQTWHSGIALRLELFGCRVTDAPCSNMLGMLSGLIADSQISASSTQEYLWSPSAARLVSSRSGWFPRIPQAQPGEEWLQVDLGTPKTVKGVIIQGARGGDSITAVEARAFVRKFKVSYSLNGKDWEYIQDPRTQQPKLFEGNMHYDTPDIRRFDPIPAQYVRVYPERWSPAGIGMRLEVLGCDWT
notes: range 275-595; Purified soluble domain; also called NRP2-b1b2; NRP-2 b1b2
B3: b1b2 domains (273-586) of neuropilin-1 (receptor, UniProt O14786 273-586, looked up)
chain: FKCMEALGMESGEIHSDQITASSQYSTNWSAERSRLNYPENGWTPGEDSYREWIQVDLGLLRFVTAVGTQGAISKETKKKYYVKTYKIDVSSNGEDWITIKEGNKPVLFQGNTNPTDVVVAVFPKPLITRFVRIKPATWETGISMRFEVYGCKITDYPCSGMLGMVSGLISDSQITSSNQGDRNWMPENIRLVTSRSGWALPPAPHSYINEWLQIDLGEEKIVRGIIIQGGKHRENKVFMRKFKIGYSNNGSDWKMIMDDSKRKAKSFEGNNNYDTPELRTFPALSTRFIRIYPERATHGGLGLRMELLGCEVE
notes: range 273-586; Purified soluble domain; No tag described; also called NRP1-b1b2; NRP-1 b1b2
B4: VEGF165A (ligand, UniProt P15692-4 27-191, looked up)
chain: APMAEGGGQNHHEVVKFMDVYQRSYCHPIETLVDIFQEYPDEIEYIFKPSCVPLMRCGGCCNDEGLECVPTEESNITMQIMRIKPHQGQHIGEMSFLQHNKCECRPKKDRARQENPCGPCSERRKHLFVQDPQTCKCSCKNTDSRCKARQLELNERTCRCDKPRR
notes: Control ligand; biotinylated in the ELISA; also called vascular endothelial cell growth factor-A

Columns and labels:
[1] = target: B3; test: competition ELISA on plate-bound NRP1-b1b2: Sema3A titrated against Fc-15F22P (30 nM), absorbance at 405 nm [right panel Fc-15F22P]
Experimental: (§1) Specifically, b1b2 domains (273-586) of neuropilin-1 and b1b2 domains (275-595) of neuropilin-2 were bound in 96-well EIA/RIA plates (COSTAR Corning In., USA) at room temperature for 1 hour, and then washed three times for 10 minutes with 0.1% PBST (0.1% Tween20, pH 7.4, 137 mM NaCl, 10 mM Phosphate, 2.7 mM KCl, SIGMA-ALDRICH co., USA). After binding for 1 hour with 5% skim milk (pH 7.4, 137 mM NaCl, 10 mM Phosphate, 2.7 mM KCl, SIGMA-ALDRICH co., USA), it was washed three times for 10 minutes with 0.1% PBST (0.1% Tween20, pH 7.4, 137 mM NaCl, 10 mM Phosphate, 2.7 mM KCl, SIGMA-ALDRICH co., USA).

[2] = target: B3; test: competition ELISA on plate-bound NRP1-b1b2: Sema3A titrated against Fc-15A22P (30 nM), absorbance at 405 nm [left panel Fc-15A22P]
Experimental: as §1

Sema3F (19-779) = target: T1, Sema3F (19-779); test: SPR Biacore 2000, NRP b1b2 on CM5 chip
Experimental: (§2) Specifically, each b1b2 domain of neuropilin-1 and -2 was diluted with 10 mM Na-acetate buffer (pH 4.0), and fixed onto CM5 sensor chips (GE healthcare, USA) in about 1000 response units (RU). […] After bond and dissociation analysis, the regeneration of CM5 chip was performed by streaming a buffer (20 Mm NaOH, 1 M NaCl, pH 10.0) at a stream velocity 30 μl/min for 1 minute.

Sema3A (26-760) = target: B1; test: SPR Biacore 2000, NRP b1b2 on CM5 chip
[3] = target: B3; test: competition ELISA on plate-bound NRP1-b1b2: VEGF165 titrated against Fc-15A22P (30 nM), absorbance at 405 nm [left panel Fc-15A22P]
Experimental: as §1

[4] = target: B3; test: SPR Biacore 2000, NRP b1b2 on CM5 chip
Experimental: as §2

[5] = target: B2; test: SPR Biacore 2000, NRP b1b2 on CM5 chip
Experimental: as §2

[6] = target: B3; test: competition ELISA on plate-bound NRP1-b1b2: VEGF165 titrated against Fc-15F22P (30 nM), absorbance at 405 nm [right panel Fc-15F22P]
Experimental: as §1

[7] = target: B3; test: SPR Biacore 2000, NRP b1b2 on CM5 chip; remark: listed apart in the source
Experimental: as §2

[8] = target: B2; test: SPR Biacore 2000, NRP b1b2 on CM5 chip; remark: listed apart in the source
Experimental: as §2

Binder: B1
IC50 (read off the curve) [1]: ~20 nM
IC50 (read off the curve) [2]: ~20 nM

Binder: B2
Kd (Sema3F (19-779)): 345 nM
koff (Sema3F (19-779)): 0.0015 s⁻¹
kon (Sema3F (19-779)): 4340 M⁻¹ s⁻¹
Kd (Sema3A (26-760)): 231 nM
koff (Sema3A (26-760)): 0.00161 s⁻¹
kon (Sema3A (26-760)): 6960 M⁻¹ s⁻¹

Binder: B3
Kd (Sema3F (19-779)): 245 nM
koff (Sema3F (19-779)): 0.000973 s⁻¹
kon (Sema3F (19-779)): 3980 M⁻¹ s⁻¹
Kd (Sema3A (26-760)): 27.9 nM
koff (Sema3A (26-760)): 0.000808 s⁻¹
kon (Sema3A (26-760)): 28900 M⁻¹ s⁻¹

Binder: B4
IC50 (read off the curve) [3]: ~3 nM
Kd [4]: 3.51 nM
koff [4]: 0.00342 s⁻¹
kon [4]: 975000 M⁻¹ s⁻¹
Kd [5]: 32 nM
koff [5]: 0.00373 s⁻¹
kon [5]: 117000 M⁻¹ s⁻¹
IC50 (read off the curve) [6]: ~2 nM
Kd [7]: 3.51 nM
koff [7]: 0.00342 s⁻¹
kon [7]: 975000 M⁻¹ s⁻¹
Kd [8]: 32 nM
koff [8]: 0.00373 s⁻¹
kon [8]: 117000 M⁻¹ s⁻¹
